B1: LINE1-mini (parent)
chain: GGCAGAGCUCAACACAGCGUGGCAAAGUGGCUGUGGCUAGACUGCC

Variants of: B1
Assay: self-cleavage, relative activity (ratio to wild type); higher = more cleavage; in vitro, sequencing; the parent is a self-cleaving ribozyme

Variant | self-cleavage
G5A G29A | 0.1
A12U G27U | 0.23
A26C A41U | 0.72
U32C G33C | 0.04
G30U C37A | 0.08
U28C C46U | 0.51
A6U A16U | 0.11
G5U A11C | 0.03
G22A C45G | 0.32
A14C G36A | 0.15
A25U G33U | 0.13
C13G A25C | 0.18
G7C U43A | 0.15
G5U C10A | 0.03
G22C G30C | 1.94
A14C U28C | 0.07
C8U C45G | 0.46
G30C G40A | 0.13
G7U C31A | 0.09
A14U G35U | 0.12
G27C C42A | 0.07

Variant | self-cleavage
A4G A25C | 0.78
A6G G33A | 0.06
C31A A41G | 0.08
C8U A39U | 0.09
C8U A39C | 0.2
G2U U32C | 0.03
G29U | 1.09
G21U U28G | 0.52
A16G U28C | 0.44
A26U G44C | 0.64
C10G C37U | 0.01
A39G C45A | 0.1
U9G C45A | 0.11
C8G G27U | 0.11
C8G G27A | 0.17
G17C G27C | 0.29
A14U G27U | 0.29
G21U C23A | 1.24
G17U C42G | 0.06
U20C A25C | 0.75
U34C A41C | 0.05

Variant | self-cleavage
U38G A39C | 0.1
G29A A39C | 0.21
A24C U32A | 0.08
C18G A39U | 0.47
C13G A39C | 0.16
G1U G22C | 0.23
G22C U32G | 0.2
A25G G44U | 0.28
C3A G36C | 1.01
G29A C31A | 0.43
G1A C15G | 0.08
U9C C10A | 0.03
A25U C37G | 0.02
A25C U38A | 0.22
C18G U32C | 0.15
G27A U43C | 0.37
U43G G44U | 0.25
U43G G44C | 0.32
G27U C45A | 0.92
A25G U38G | 0.01
A14G U32C | 0.08

Variant | self-cleavage
C18G C45U | 0.13
G21C G40U | 0.15
G7C C45A | 0.1
G7C C45G | 0.11
U20A C37A | 0.05
A6C G7U | 0.1
A11U G21A | 0.33
A6G U43G | 0
A25G C45G | 0.17
A39C C46A | 0.13
G33C C45G | 0.06
G17C C31U | 0.16
A14C C45A | 0.08
A4U A12G | 0.05
A11C U28G | 0.05
A6C G22U | 0.57
G5U U28C | 0.09
U20A G27C | 0.24
C31G C37A | 0.09
C8G C46A | 0.05

Reference: the RNAGym collection of RNA variant scans (doi:10.7554/elife.90254)
